Measured values from publication PMC11506642, “Cooperative Substructure and Energetics of Allosteric Regulation of the Catalytic Core of the E3 Ubiquitin Ligase Parkin by Phosphorylated Ubiquitin” (Biomolecules, 2024).

Molecular target: T1, phosphorylated ubiquitin (UniProt P0CG47 1-76, phosphorylated (site not given))
T1 construct: ubiquitin, the mature cut product of its precursor; also called pUb; source: prepared as described [16]
Test: HDX-MS; native-state hydrogen exchange with pepsin fragmentation MS; 20 mM HEPES, 150 mM NaCl, 10 uM ZnCl2, 1 mM TCEP, 2.5% glycerol, pH 7.0, 20 °C, urea up to 4 M; ~7 uM Parkin(∆Ubl), ~12 uM pUb
Conditions: both partners purified

B1: Parkin(∆Ubl) (domain or fragment, human)
chain: SSGSPAGRSIYNSFYVYCKGPCQRVQPGKLRVQCSTCRQATLTLTQGPSCWDDVLIPNRMSGECQSPHCPGTSAEFFFKCGAHPTSDKETSVALHLIATNSRNITCITCTDVRSPVLVFQCNSRHVICLDCFHLYCVTRLNDRQFVHDPQLGYSLPCVAGCPNSLIKELHHFRILGEEQYNRYQQYGAEECVLQMGGVLCPRPGCGAGLLPEPDQRKVTCEGGNGLGCGFAFCRECKEAYHEGECSAVFEASGTTTQAYRVDERAAEQARWEAASKETIKKTTKPCPRCHVPVEKNGGCMHMKCPQPQCRLEWCWNCGCEWNRVCMGDHWFDV
notes: two extra serines that precede the Parkin residues in the construct; E3 ubiquitin ligase Parkin, human, canonical isoform (Swiss-Prot O60260-1), residues 135 through 465; RING0, RING1, IBR, REP and RING2 domains, without the Ubl domain and linker; The introduction defines the core as residues 137-461; the methods give the construct as (SS) plus 135-465; The His-SUMO fusion was cut with TEV …
**Q.** Does B1 bind?
**A.** Result: binds
